Experiments:
Assay in all cases: pull-down binding Z-score (relative to library population); higher = stronger binding
Conditions in all cases: RNA library: Library-2
[1] = test system: TO-N3-2 (biotin conjugate)
In short: (§1)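 Biotin-conjugated small molecule (100 pmol) on streptavidin beads was incubated with 1 μg of heat-folded Cy5- or Cy3-end-labelled RNA library in phosphate/NaCl/KCl buffer at 25 °C for 60 min. Following three washes, RNA was eluted with hot SDS and hybridised at 55.5 °C for 20 h to a DNA barcode microarray. The binding value is a Z-score computed from the library mean and standard deviation, after subtraction of beads without compound and averaging of barcoded replicate probes with the highest and lowest excluded.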

[2] = test system: TO-3-N3 (biotin conjugate)
In short: as §1

[3] = test system: TO-N3 (biotin conjugate)
In short: as §1

[4] = test system: TO-3-N3-2 (biotin conjugate)
In short: as §1

Row | Sequence | pull-down binding Z-score [1] | pull-down binding Z-score [2] | pull-down binding Z-score [3] | pull-down binding Z-score [4]
1 | CCCUGAACACAAUGACCAAAGAUGCUGAGAGAGGG [IAV_invivo_PB1_2_Motif_12+IAV_invivo_PB1_2_Motif_12] | 0.884 | -0.218 | 0.143 | 0.103
2 | GUUGUAGACGGUUGUAAUUCAUCAACUUGUAUGAUGUGUUACAAACGUAAUAGAGC [SHAPE_invivo_SARS-CoV-2_Motif_153] | -0.564 | -0.547 | -0.562 | -0.153
3 | UAUAAAGUUUAUUAUGGUAAUGCUUUAGAUCAAGCCAUUUCCAUGUGGGCUCUUAUA | -0.695 | -0.704 | -0.806 | -0.133
4 | GCGCUGCCAGAAACUGGCGGGAGCGC [bulge-GGG] | 0.604 | 0.781 | 0.688 | 0.00655
5 | GUUGUCUUGAAAACUGGUGAUUUACAACCAUUAGAACAACCUACUAGUGAAGCUGUUGAAGCUCCAUUGGUUGGUACACCAGUUUGUAUUAAC | -0.384 | -0.52 | -0.376 | -0.367
6 | CAUGGAUUUGUCUUCUACAAUUUGCCUAUG | -0.745 | -0.852 | -0.967 | -0.186
7 | UAAUUCUUGGCUUAUGUGGUUAAUAAUUA [DMSMaPseq_invitro_SARS-CoV-2_Motif_139] | -0.709 | -0.0604 | -0.293 | -0.0756
8 | GGUGUUUUAACUGCUGUGGUUAUACCUACUAAAAAGGCUGGUGGCACUACUGAAAUGCU | -0.153 | -0.83 | -0.521 | -0.12
9 | GAAUGGAGAACGCAGUGGGGCGCGAUCAAAACAACGUCGGCCCCAAGGUUUACCCAAUAAUACUGCGUCUUGGUUC | 0.849 | 0.148 | 0.452 | 0.382
10 | GAGUUACACAGAAUGUUCUCUAUGAGAACCAAAAAUUGAUUGCCAACCAAUUUAAUAGUGCUAUUGGCAAAAUUCAAGACUC | -0.226 | -0.57 | -0.581 | 0.305
11 | GCCCUUAUAGGGC [IAV_invivo_NA_6_Motif_5+IAV_invivo_NA_6_Motif_5] | -1.22 | 0.164 | -0.247 | -0.38
12 | CCAGUAUGGUGG [IAV_invivo_PB1_2_Motif_36+IAV_invivo_PB1_2_Motif_36] | -0.372 | -0.26 | -0.423 | -0.471
13 | GCGCGGCCAGAAACUGGCUGCGC [mismatch-GU] | -0.388 | 0.969 | 0.831 | 0.0256
14 | GUUGUAGACGGUUGUAAUUCAUCAACUUGUAUGAUGUGUUACAAACGUAAUAGAGCAAC | -0.288 | -0.88 | -0.954 | -0.529
15 | ACAGGGACUACUCCCACCCAAGAAUAGCAUAGAUGCCUUCAAACUCAACAUUAAAUUGUUGGGUGUUGGUGGCAAACCUUGUAUCAAAGUAGCCACUGU | -0.183 | -0.466 | -0.503 | 0.116
16 | CCUUACCCAGAUCCAUCAAGAAUCCUAGGGGCCGG | 0.308 | 0.842 | 0.876 | 0.14
17 | GGCCUUGAAGCC [SHAPE_invitro_SARS-CoV-2_Motif_466] | -0.459 | -0.406 | -0.703 | -0.216
18 | GUUAAAAAUCUGAAUUCUUCUAGAGUUCCUGAUCUUCUGGUCUAAAC | 0.13 | -0.557 | -0.527 | 0.157
19 | CUAACUGAGAAUAAAUAUUCUCAAUUAG | -1.87 | -0.985 | -1.59 | -0.937
20 | CACAUCUAGGUUUCGUCCGGGUGUG [SARS-CoV-2-Conserved-Structured-16_Interval-158-277_Motif_2] | -0.319 | 0.468 | 0.254 | -0.459
21 | UGUACAUACAGCUAAUAAAUGGGAUCUCAUUAUUAGUGAUAUGUACG [DMSMaPseq_invitro_SARS-CoV-2_Motif_370] | -0.223 | -0.362 | -0.461 | -0.188
22 | GCUUUCUUUGGC [IAV_invivo_NS1_NEP_8_Motif_2+IAV_invivo_NS1_NEP_8_Motif_2] | -1.09 | -0.0308 | -0.43 | -0.505
23 | AUCUGAAUUCUUCUAGAGUUCCUGAU | -0.858 | 0.655 | 0.466 | -0.168

Row | Sequence | pull-down binding Z-score [1] | pull-down binding Z-score [2] | pull-down binding Z-score [3] | pull-down binding Z-score [4]
24 | CUACACUAGUGCCACAAGAGCACUAUGUUAG | 0.417 | -0.402 | -0.127 | -0.213
25 | GAGUCCUCAUCGGAGGACUU [IAV_invivo_NS1_NEP_8_Motif_11+IAV_invivo_NS1_NEP_8_Motif_11] | -1.36 | -0.347 | -0.729 | -0.368
26 | AAGGUACAGCAGAUACUUACCUG [U1snRNP5ss-22] | 0.0449 | -0.32 | -0.213 | 0.198
27 | CACUUCUUUCUUUGAGAGAAGUG | -1.42 | -0.323 | -0.669 | -0.228
28 | CUUUUAUGUCUAUGCUAAUGGAGGUAAAGG [SHAPE_invivo_SARS-CoV-2_Motif_154] | -0.771 | -0.524 | -0.68 | -0.487
29 | UGUCACAUCAAUCUGACA | -0.472 | -0.221 | -0.416 | -0.268
30 | ACAUUAGAUAAUCAAGAUCUCAAUGGUAACUGGUAUGAUUUCGGUGAUUUCAUACAAACCACGCCAGGUAGUGGAGUUCCUGUUGUAGAUUCUUAUUAUUCAUUGU | 0.46 | -0.0358 | 0.235 | 0.102
31 | GACAUGUUCCUCGGAACUUGUC | -0.965 | -0.926 | -1.35 | -0.631
32 | ACACUAAUUCUUUCACACGUGGUGU [DMSMaPseq_invitro_SARS-CoV-2_Motif_381] | -0.973 | -0.0462 | -0.398 | -0.0877
33 | ACCGGUGGAAUUGCUAUCGCAAUGGCUUGUCUUGUAGGCUUGAUGUGGCUCAGCUACUUCAUUGCUUCUUUCAGACUGUUUGCGCGUACGCGUUCCAUGUGGU | 0.838 | 1.2 | 1.07 | 0.131
34 | GGAAUUUGAACC [IAV_invivo_PB2_1_Motif_28+IAV_invivo_PB2_1_Motif_28] | -0.514 | 0.293 | 0.0885 | -0.147
35 | ACAGGUUUUAUCGAACCUGU [IAV_invivo_PB1_2_Motif_25+IAV_invivo_PB1_2_Motif_25] | -1.54 | -0.147 | -0.828 | -0.571
36 | UCUCUAUGACAAACUUGUUUCAAGCUUUUUGGAAAUGAAGAGUGAAAAGCAAGUUGAACAAAAGAUCGCUGAGA [SHAPE_invitro_SARS-CoV-2_Motif_69] | 0.388 | -0.0465 | -0.0892 | -0.507
37 | AAAAACACCCAAGAAGUUUUU | -0.932 | -0.552 | -0.802 | -0.458
38 | GCGCUGCCAGAAACUGGCUUAAGCGC [bulge-UUA] | -0.601 | 0.176 | -0.128 | -0.252
39 | AUUUUUCUAAACUGAUAAAU [DMSMaPseq_invitro_SARS-CoV-2_Motif_131] | -1.08 | -0.374 | -0.771 | -0.194
40 | GUGUUUAUGAUUACUUAGUUUCUACACAGGAGUUUAGAUAUAUGAAUUCACAGGGACUACUCCCACCCAAGAAUAGCAUAGAUGC | -0.079 | -0.215 | -0.0167 | 0.472
41 | AUGCCAACUAUUUUCUUUGCUGGCAU | -1.13 | -0.81 | -1.36 | -0.637
42 | UGCUGUUGUUAAAAUUUAUUGUCCAGCA [SHAPE_invitro_SARS-CoV-2_Motif_28] | -0.921 | -0.341 | -0.582 | -0.134
43 | AAUGAGUUUUACGCAUAUUUGCGUAAACAUU | -1.23 | -0.889 | -1.36 | -0.413
44 | UAUUAUUGCUAUGUCUGCUUUUGCAAUGAUG | -1.18 | -1.09 | -1.29 | -0.373
45 | GGUUGGGAGAAGAGCAACAGCC [IAV_invivo_PB2_1_Motif_16+IAV_invivo_PB2_1_Motif_16] | 1.09 | 0.351 | 0.776 | 0.479
46 | GCACCUCAUGGUGU | -0.856 | 0.707 | 0.66 | -0.649

Row | Sequence | pull-down binding Z-score [1] | pull-down binding Z-score [2] | pull-down binding Z-score [3] | pull-down binding Z-score [4]
47 | AUGUUUGUCAAACAUAAGCAU [DMSMaPseq_invitro_SARS-CoV-2_Motif_200] | -0.806 | -0.651 | -0.873 | -0.54
48 | CACAUCAGUAGUCUUACUCUCAGUUUUGCAACAACUCAGAGUAGAAUCAUCAUCUAAAUUGUG [DMSMaPseq_invitro_SARS-CoV-2_Motif_209] | -0.741 | -0.736 | -0.843 | -0.352
49 | GGAGUUCAAAUUGCUUCC [IAV_invivo_NP_5_Motif_19+IAV_invivo_NP_5_Motif_19] | -0.604 | -0.502 | -0.561 | -0.404
50 | UCUAUACAGAACUGGA [SHAPE_invivo_SARS-CoV-2_Motif_242] | -0.496 | 1.18 | 0.79 | -0.0262
51 | AUGCAUUCUGCAU [SHAPE_invivo_SARS-CoV-2_Motif_273] | -1.32 | -0.0791 | -0.142 | -0.638
52 | GGUCAAAUCAAUGAUAUGAUUUUAUC | -1.3 | -0.859 | -1.26 | -0.505
53 | CAACUUACAAAUUAAAUGUUG | -1.06 | -0.448 | -0.698 | -0.152
54 | GGCGAUAGUUGUAAUAACUAUAUGCU | -0.976 | -1.04 | -1.31 | -0.564
55 | GUUAUAAAUGGAGACAGGUGGUUUCUCAAUCGAUUUACCACAACUCUUAAUGAC | -0.831 | -0.728 | -0.772 | 0.00889
56 | UCAUUAAUUGA | -1.65 | -0.712 | -1.27 | -0.664
57 | CUGCACUGUUAGCGGGUACAAUCACUUCUGGUUGGACCUUUGGUGCAG [SHAPE_invitro_SARS-CoV-2_Motif_437] | -0.738 | -0.428 | -0.574 | -0.189
58 | CUCAAACCCGUCCUUGAUUGGCUUGAAGAGAAGUUUAAGGAAGGUGUAGAG [DMSMaPseq_invitro_SARS-CoV-2_Motif_41] | -0.0884 | -0.564 | -0.455 | -0.174
59 | AAUAUUGCUUUGCUUGUACAGUAAGUGACAACAGAUGUUUCAUCUCGUUGACUUUCAGGUUACUAUAGCAGAGAUAUU [DMSMaPseq_invitro_SARS-CoV-2_Motif_488] | 0.237 | -0.135 | -0.0703 | 0.152
60 | UGCAGAUUUGGAUGAUUUCUCCAAACAAUUGCA | -0.51 | 0.0526 | -0.0544 | -0.117
61 | GGCCAUUAGAGGCC [IAV_invivo_PB2_1_Motif_29+IAV_invivo_PB2_1_Motif_29] | -1.06 | 0.0791 | -0.257 | -0.69
62 | AUAAGAAAGACAAUUCUUAU [DMSMaPseq_invitro_SARS-CoV-2_Motif_114] | -1.45 | -0.755 | -1.07 | -0.3
63 | CGUGGUAUUCUUGCUAGUUACACUAGCCAUCCUUACUGCG | -0.427 | -0.913 | -1.1 | -0.37
64 | CAUGUCAUGUCUAAACAUACUGACUUUUCAAGUG [SHAPE_invitro_SARS-CoV-2_Motif_169] | -0.539 | -0.283 | -0.41 | -0.276
65 | GCAGUAUAAUUAAUAACUAAUUACUGU [SARS-CoV-2-Conserved-Structured-36_Interval-120-237_Motif_1] | -1.31 | -0.577 | -1.03 | -0.428
66 | UACCAUUUAAUGAUGGUG | -1.03 | 0.115 | -0.0588 | -0.21
67 | GGAGGUUGCUAGUCAGGCUAGACAAAUGGUGCAAGCGAUGAGAACCAUUGGAACUCAUCCUAGCUCCAGUGCUGGUCUGAAAAAUGAUCUUC [IAV_invivo_M1_M2_7_Motif_15+IAV_invivo_M1_M2_7_Motif_15] | 0.839 | -0.55 | -0.195 | -0.816
68 | UCUGAAGAAGUAGUGGAAAAUCCUACCAUACAGA [DMSMaPseq_invitro_SARS-CoV-2_Motif_122] | 0.514 | -0.124 | 0.657 | -0.226

From the supplement of paper PMC11865577
